The results in this text go back to article PMC4877171 (Chemical research in toxicology, 2015).

One may read the stoichiometry N as a count of units in the complex or per binding partner.

Common to all, as to assay: cross-linking
The target in series [1] is Human recombinant TrxR1 mutant enzyme (Sec498Cys) (human) (UniProt Q16881).
The target of series [2] is T1, purified rat cytosolic TrxR (rat, UniProt O89049 1-499, selenocysteine at 498).
T1 sequence (looked up): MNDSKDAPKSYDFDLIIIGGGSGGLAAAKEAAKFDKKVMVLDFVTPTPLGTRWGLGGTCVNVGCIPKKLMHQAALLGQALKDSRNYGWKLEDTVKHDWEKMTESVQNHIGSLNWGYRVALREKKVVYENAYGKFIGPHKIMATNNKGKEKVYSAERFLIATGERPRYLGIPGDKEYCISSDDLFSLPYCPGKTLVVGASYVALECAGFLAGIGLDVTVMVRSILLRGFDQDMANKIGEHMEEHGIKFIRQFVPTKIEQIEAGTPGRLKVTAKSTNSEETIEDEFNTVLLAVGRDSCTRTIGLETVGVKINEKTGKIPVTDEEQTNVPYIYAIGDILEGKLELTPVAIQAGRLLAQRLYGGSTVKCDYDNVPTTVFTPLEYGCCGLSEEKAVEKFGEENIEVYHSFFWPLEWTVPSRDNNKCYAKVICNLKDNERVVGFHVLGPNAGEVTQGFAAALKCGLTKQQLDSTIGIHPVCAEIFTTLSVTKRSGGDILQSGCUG

Series [3] concerns the molecule itself.

As to “Human recombinant TrxR1 mutant enzyme (Sec498Cys) (from UniProt Q16881-5 1-499)”, the stoichiometry N in series [1] was found to be 2.

B1: recombinant human Trx1 (natural protein)
chain: MVKQIESKTAFQEALDAAGDKLVVVDFSATWCGPCKMIKPFFHSLSEKYSNVIFLEVDVDDCQDVASECEVKCMPTFQFFKKGQKVGEFSGANKEKLEATINELV
For the molecule B1, the binding result in series [2] is recorded as “binds”. Also, the “stoichiometry N” value in series [3] stood at 2.
